# Reference: US20170349646A1 (PANASONIC INTELLECTUAL PROPERTY MANAGEMENT, published 2017)
# Experiments:
# [1] = biological target: recombinant nucleoprotein (NP) protein derived from influenza virus H1N1 to which a Flag tag was fus (influenza virus H1N1)
# [2] = biological target: recombinant nucleoprotein derived from influenza virus subtype A H1N1 (Sino Biological, 11675-VO8H) (influenza virus subtype A H1N1)
# Chain of recombinant nucleoprotein derived from influenza virus subtype A H1N1 (Sino Biological, 11675-VO8H) (influenza virus subtype A H1N1) (P03466 whole entry): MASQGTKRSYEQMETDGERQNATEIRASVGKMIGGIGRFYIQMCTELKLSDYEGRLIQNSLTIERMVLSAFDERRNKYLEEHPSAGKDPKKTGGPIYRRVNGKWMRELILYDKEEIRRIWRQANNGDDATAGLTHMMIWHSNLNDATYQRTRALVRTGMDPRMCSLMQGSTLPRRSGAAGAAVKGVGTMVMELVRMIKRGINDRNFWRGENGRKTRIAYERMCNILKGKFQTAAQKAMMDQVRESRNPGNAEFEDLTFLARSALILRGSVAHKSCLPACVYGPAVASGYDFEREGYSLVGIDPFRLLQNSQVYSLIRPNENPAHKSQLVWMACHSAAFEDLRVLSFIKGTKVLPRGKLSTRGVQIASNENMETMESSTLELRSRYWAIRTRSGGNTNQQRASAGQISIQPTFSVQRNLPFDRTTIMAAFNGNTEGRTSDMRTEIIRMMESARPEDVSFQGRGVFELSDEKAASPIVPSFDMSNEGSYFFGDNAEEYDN
# Chain of recombinant nucleoprotein (NP) protein derived from influenza virus H1N1 to which a Flag tag was fus (influenza virus H1N1) (P03466 whole entry): as above
binder,measurement,setting,value
VHH antibody consisting of the amino acid sequence represented by SEQ ID NO: 08 (VHH) VHH: EVQLVESGGGLVQAGDSLRLSCAASGRTFINLDMGWFRQPPGKEREYVAAITRNGAITSYADSAKGRFTISRDNAKNTVSLEMNSLKPEDTGVYYCAAYSISNYGSGWYKPDYWGQGAQVTVSS,Kd,[1],0.224 nM
same,EC50 (read off the curve),[2],~8 ng/mL
